Article PMC4575908

Substrate: O=C(O)[C@H]1O[C@@H](Oc2ccc([N+](=O)[O-])cc2)[C@H](O)[C@@H](O)[C@@H]1O
Type: biochemical
Conditions: 37.0 °C

B1: SaGUS (Streptococcus agalactiae 2603V/R) (protein)
chain: MLYPLLTKTRNTYDLGGIWNFKLGEHNPNELLPSDEVMVIPTSFNDLMVSKEKRDYIGDFWYEKVIEVPKVSEDEEMVLRFGSVTHQAKIYVDGVLVGEHKGGFTPFEVLVPECKYNNEKIKVSICANNVLDYTTLPVGNYSEIIQEDGSIKKKVRENFDFFNYAGVHRPLKLMIRPKNHIFDITITSRLSDDLQSADLHFLVETNQKVDEVRISVFDEDNKLVGETKDSRLFLSDVHLWEVLNAYLYTARVEIFVDNQLQDVYEENFGLREIEVTNGQFLLNRKPIYFKGFGKHEDTFINGRGLNEAANLMDLNLLKDMGANSFRTSHYPYSEEMMRLADRMGVLVIDEVPAVGLFQNFNASLDLSPKDNGTWNLMQTKAAHEQAIQELVKRDKNHPSVVMWVVANEPASHEAGAHDYFEPLVKLYKDLDPQKRPVTLVNILMATPDRDQVMDLVDVVCLNRYYGWYVDHGDLTNAEVGIRKELLEWQDKFPDKPIIITEYGADTLPGLHSTWNIPYTEEFQCDFYEMSHRVFDGIPNLVGEQVWNFADFETNLMILRVQGNHKGLFSRNRQPKQVVKEFKKRWMTIPHYHNKKNSVK
- Km: 360 ± 30 µM
- kcat: 80 ± 2 s⁻¹
- kcat/Km: 224000 M⁻¹ s⁻¹
